The values below come from doi:10.1101/2021.04.09.439147 (bioRxiv, 2021).

The target in the test is T1, SARS-CoV-2 S1 subunits-His tag (SARS-CoV-2, reference assumed, UniProt P0DTC2).
T1 construct: source: bought: Sino Biological
Description: ELISA. The settings on record: both partners purified. In general terms: In an ELISA, binding on a coated surface is turned into a signal by an enzyme label.

B1: FLAG-tagged K-874A (VHH)
VHH: EVQLVESGGGQVETGGSLRLSCQASGSTFSDYVMAWFRQRPGKEREFVATISRNGGTTTYGSSVKGRFTISRDNAKSTVYLQMNSLKPEDTAVYYCYAVGGDGDSWGQGTQVTVSS
notes: also called CoVHH1-FLAG
Take B1: the binding result is “binds”.
